Results from patent publication US20240000834A1, “RAS MUTANT EPITOPE PEPTIDE AND T CELL RECEPTOR RECOGNIZING RAS MUTANT” (SHANGHAI GENBASE BIOTECHNOLOGY CO., LTD., priority 2020, published 2024).
Positions count from the first letter of the chain named.

B1: β48Y-K: B13.14.1 TCR Vβ point mutant (protein)
TCR alpha: AQSVAQPEDQVNVAEGNPLTVKCTYSVSGNPYLFWYVQYPNRGLQFLLKYITGDNLVKGSYGFEAEFNKSQTSFHLKKPSALVSDSALYFCAVRDGRGGGNKLTFGTGTQLKVEL
TCR beta: GITQSPKYLFRKEGQNVTLSCEQNLNHDAMYWYRQDPGQGLRLIYKSQIVNDFQKGDIAEGYSVSREKKESFPLTVTSAQKNPTAFYLCASSPGQRDNSPLHFGNGTRLTVT
B2: β51I-S: B13.14.1 TCR Vβ point mutant (protein)
TCR alpha: B1 TCR alpha
TCR beta: B1 TCR beta with K46Y, I49S
B3: β51I-K: B13.14.1 TCR Vβ point mutant (protein)
TCR alpha: B1 TCR alpha
TCR beta: B1 TCR beta with K46Y, I49K
B4: β51I-F: B13.14.1 TCR Vβ point mutant (protein)
TCR alpha: B1 TCR alpha
TCR beta: B1 TCR beta with K46Y, I49F
B5: β48Y-V: B13.14.1 TCR Vβ point mutant (protein)
TCR alpha: B1 TCR alpha
TCR beta: B1 TCR beta with K46V
B6: β51I-P: B13.14.1 TCR Vβ point mutant (protein)
TCR alpha: B1 TCR alpha
TCR beta: B1 TCR beta with K46Y, I49P
B7: β51I-V: B13.14.1 TCR Vβ point mutant (protein)
TCR alpha: B1 TCR alpha
TCR beta: B1 TCR beta with K46Y, I49V
B8: β48Y-T: B13.14.1 TCR Vβ point mutant (protein)
TCR alpha: B1 TCR alpha
TCR beta: B1 TCR beta with K46T
B9: β51I-Q: B13.14.1 TCR Vβ point mutant (protein)
TCR alpha: B1 TCR alpha
TCR beta: B1 TCR beta with K46Y, I49Q
B10: β51I-E: B13.14.1 TCR Vβ point mutant (protein)
TCR alpha: B1 TCR alpha
TCR beta: B1 TCR beta with K46Y, I49E
B11: β51I-R: B13.14.1 TCR Vβ point mutant (protein)
TCR alpha: B1 TCR alpha
TCR beta: B1 TCR beta with K46Y, I49R
B12: β48Y-N: B13.14.1 TCR Vβ point mutant (protein)
TCR alpha: B1 TCR alpha
TCR beta: B1 TCR beta with K46N
B13: β51I-L: B13.14.1 TCR Vβ point mutant (protein)
TCR alpha: B1 TCR alpha
TCR beta: B1 TCR beta with K46Y, I49L
B14: β51I-D: B13.14.1 TCR Vβ point mutant (protein)
TCR alpha: B1 TCR alpha
TCR beta: B1 TCR beta with K46Y, I49D
B15: β51I-W: B13.14.1 TCR Vβ point mutant (protein)
TCR alpha: B1 TCR alpha
TCR beta: B1 TCR beta with K46Y, I49W
B16: β48Y-R: B13.14.1 TCR Vβ point mutant (protein)
TCR alpha: B1 TCR alpha
TCR beta: B1 TCR beta with K46R
B17: β51I-G: B13.14.1 TCR Vβ point mutant (protein)
TCR alpha: B1 TCR alpha
TCR beta: B1 TCR beta with K46Y, I49G
B18: β48Y-P: B13.14.1 TCR Vβ point mutant (protein)
TCR alpha: B1 TCR alpha
TCR beta: B1 TCR beta with K46P
B19: β51I-H: B13.14.1 TCR Vβ point mutant (protein)
TCR alpha: B1 TCR alpha
TCR beta: B1 TCR beta with K46Y, I49H
B20: β48Y-W: B13.14.1 TCR Vβ point mutant (protein)
TCR alpha: B1 TCR alpha
TCR beta: B1 TCR beta with K46W
B21: β48Y-S: B13.14.1 TCR Vβ point mutant (protein)
TCR alpha: B1 TCR alpha
TCR beta: B1 TCR beta with K46S
B22: β51I-T: B13.14.1 TCR Vβ point mutant (protein)
TCR alpha: B1 TCR alpha
TCR beta: B1 TCR beta with K46Y, I49T
B23: β51I-A: B13.14.1 TCR Vβ point mutant (protein)
TCR alpha: B1 TCR alpha
TCR beta: B1 TCR beta with K46Y, I49A
B24: β51I-M: B13.14.1 TCR Vβ point mutant (protein)
TCR alpha: B1 TCR alpha
TCR beta: B1 TCR beta with K46Y, I49M
B25: β48Y-L: B13.14.1 TCR Vβ point mutant (protein)
TCR alpha: B1 TCR alpha
TCR beta: B1 TCR beta with K46L
B26: β48Y-Q: B13.14.1 TCR Vβ point mutant (protein)
TCR alpha: B1 TCR alpha
TCR beta: B1 TCR beta with K46Q

Target: T1, KRAS-G12V antigen (RAS G12V-T15 peptide) (Homo sapiens, UniProt P01116, G12V)
T1 construct: endogenous in cells; host or cells: patient B13 autologous LCL cells (endogenous HLA-DP); the peptide is synthetic
Assay: TCR mutant screening in Jurkat-NFAT-Luc cells with antigen-loaded B13 LCL cells (ONE Glo Luciferase)
Format: cell-based
Settings: MHC-II binding region mutants; ratio to wild-type B13.14.1 TCR; 16-24 hours
Procedure: According to the table below, point mutations were performed on the Vα and Vβ of B13.14.1 TCR (including CDR3 region and […]), and a lentiviral vector shuttle plasmid encoding the TCR mutant was constructed, packaged with the standard lentiviral vector in 293T cells, and B13.14.1TCR mutant were subjected to function screening.
The TCR mutant (CDR3 region) lentiviral vector was transduced into Jurkat-NFAT-Luc cell line, and B13 LCL cells loaded with KRAS-G12V antigen (RAS G12V-T15 peptide, SEQ ID NO: 5) were used as antigen-presenting cells. 2×10^4 TCR-T and 2×10^4 antigen-loaded B13 LCL cells were co-cultured for 16-24 hours, and added with ONE Glo Luciferase to detect the expression of fluorescent signal, and the TCR Mut RLU/WT RLU (ratio of RLU signal value of TCR mutant to RLU signal value of wild-type B13.14.1 TCR) was calculated.
The TCR mutant (MHC-II binding region) lentiviral vector was transduced into the Jurkat-NFAT-Luc cell line, and B13 LCL cells loaded with KRAS-G12V antigen (RAS G12V-T15 peptide, SEQ ID NO: 5) were used as the antigen-presenting cells. 2×10^4 TCR-T and 2×10^4 antigen-loaded B13 LCL cells were co-cultured for 16-24 hours, the fluorescence signal expression was detected by adding ONE Glo Luciferase, and TCR Mut RLU/WT RLU (ratio of RLU signal value of TCR mutant to RLU signal value of wild-type B13.14.1TCR) was calculated.

Row | Molecule | TCR Mut RLU/WT RLU [%]
1 | B1 | 83.49
2 | B2 | 21.00
3 | B3 | 3.82
4 | B4 | 32.79
5 | B5 | 63.15
6 | B6 | 19.95
7 | B7 | 35.46
8 | B8 | 40.26
9 | B9 | 12.98
10 | B10 | 6.28
11 | B11 | 9.90
12 | B12 | 42.82
13 | B13 | 25.46
14 | B14 | 4.56
15 | B15 | 22.56
16 | B16 | 62.60
17 | B17 | 5.49
18 | B18 | 36.89
19 | B19 | 34.95
20 | B20 | 32.62
21 | B21 | 34.02
22 | B22 | 88.58
23 | B23 | 27.57
24 | B24 | 26.84
25 | B25 | 37.97
26 | B26 | 42.56
